Assay results reported in patent publication US20180207294A1, “NON-ALCOHOLIC FATTY LIVER REGULATING FACTOR 14-3-3 PROTEIN” (Korea University Research and Business Foundation, priority 2015, published 2018).

Assays:
14-3-3γ and PPARγ2 = target: T1, 14-3-3γ and PPARγ2 (Homo sapiens, UniProt P37231); assay: Competitive GST-pull down assay, 14-3-3γ / PPARγ2 binding under 14-3-3β overexpression; conditions: as expression amount of 14-3-3β was increased (HA-14-3-3β DNA 2 and 4 μg); 10 μM pioglitazone; FIG. 5B
T1 construct: expressed in transfected cells; host or cells: HEK-293T
T1 sequence (P37231 1-505): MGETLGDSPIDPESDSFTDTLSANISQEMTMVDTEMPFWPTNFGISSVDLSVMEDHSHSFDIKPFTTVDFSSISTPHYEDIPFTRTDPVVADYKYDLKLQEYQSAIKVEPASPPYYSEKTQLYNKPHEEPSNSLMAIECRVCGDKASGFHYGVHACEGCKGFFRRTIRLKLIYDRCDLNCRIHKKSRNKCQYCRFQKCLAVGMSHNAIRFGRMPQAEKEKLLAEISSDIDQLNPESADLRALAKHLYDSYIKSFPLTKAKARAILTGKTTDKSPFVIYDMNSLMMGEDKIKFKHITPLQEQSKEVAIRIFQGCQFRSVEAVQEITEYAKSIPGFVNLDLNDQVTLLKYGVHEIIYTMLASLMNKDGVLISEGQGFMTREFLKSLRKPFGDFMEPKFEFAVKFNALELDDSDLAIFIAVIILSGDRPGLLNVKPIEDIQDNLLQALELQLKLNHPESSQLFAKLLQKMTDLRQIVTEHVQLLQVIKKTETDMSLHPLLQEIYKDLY
T1 sequence (P31946 1-246 partner): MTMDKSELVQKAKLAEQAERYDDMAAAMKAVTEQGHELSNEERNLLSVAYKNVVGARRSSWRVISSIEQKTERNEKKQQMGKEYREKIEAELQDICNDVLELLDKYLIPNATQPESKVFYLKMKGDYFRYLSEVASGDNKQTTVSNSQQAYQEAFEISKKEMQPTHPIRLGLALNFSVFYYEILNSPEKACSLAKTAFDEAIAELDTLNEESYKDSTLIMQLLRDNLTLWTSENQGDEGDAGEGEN
Experimental: (§1) From the previous experimental results, it was verified that 14-3-3β and 14-3-3γ were bound to the phosphorylated serine 273 residue of PPARγ2, and it was determined that the two proteins would competitively bind to the same residue. Thus, GST-pull down assay was carried out to verify competitive binding of 14-3-3β and 14-3-3γ with PPARγ2.
(§2) HEK-293T cells were seeded in a 100 mm plate at a density of 2×10^6 cells per each well, and then transfected with mGST-PPARγ2DNA (4 μg), GFP-14-3-3β DNA (4 μg) or GFP-14-3-3γ DNA (4 μg), and HA-14-3-3β DNA (2 and 4 μg) or HA-14-3-3γ DNA (2 and 4 μg) using an E-fection plus reagent (Lugen). A ratio of DNA to the E-fection plus reagent was 1:2 and this method was performed according to a manufacturer's manual. After transfection, the corresponding cells were treated with 10 μM of pioglitazone (Pio, Santa Cruz) for 24 hours, washed with ice-cold PBS, and lysed using 500 μl/well of a lysis buffer (150 mM NaCl, 1 mM EDTA, 1% Nonidet P-40, 5% glycerol, 25 mM tris-HCl, pH 7.5, protease inhibitor added), and the lysed cells were centrifuged at 10,000×g and 4° C. for 10 minutes to extract proteins. […]

14-3-3β and PPARγ2 = target: T2, 14-3-3β and PPARγ2 (Homo sapiens, UniProt P37231); assay: Competitive GST-pull down assay, 14-3-3β / PPARγ2 binding under 14-3-3γ overexpression; conditions: as expression amount of 14-3-3γ was increased (HA-14-3-3γ DNA 2 and 4 μg); 10 μM pioglitazone; FIG. 5A
T2 construct: expressed in transfected cells; host or cells: HEK-293T
T2 sequence (P37231 1-505): T1 sequence (P37231 1-505)
T2 sequence (P31946 1-246 partner): T1 sequence (P31946 1-246 partner)
Experimental: as §1, §2

Substance	binding between 14-3-3γ and PPARγ2 (14-3-3γ and PPARγ2)	binding between 14-3-3β and PPARγ2 (14-3-3β and PPARγ2)
14-3-3β: 14-3-3 isoform protein, overexpressed by DNA transfection; regulating factor that increases transcriptional activity of PPARγ2	reduced	–
14-3-3γ: 14-3-3 isoform protein, overexpressed by DNA transfection; regulating factor that decreases transcriptional activity of PPARγ2	–	reduced
